Experiment [1] has as its target endogenous caspase-8 (human (endogenous in BJAB and HaCaT)) (UniProt Q14790). Briefly: affinity purification with mass spectrometry; native CD95 DISC from c-FLIPS overexpressing HaCaT cells; label-free absolute quantification (TOP 3) by LC-MS/MS, n = 3.
The target is the same in experiment [2]. The experiment in a line: affinity purification with mass spectrometry; native TRAIL DISC from c-FLIPS overexpressing BJAB cells; label-free absolute quantification (TOP 3) by LC-MS/MS, n = 3.
Experiment [3] deals with T1, endogenous FADD (human (endogenous in Jurkat, BJAB and …, UniProt Q13158 1-208)).
T1 construct: FADD, endogenous; source: endogenous, lysates of caspase-8 null Jurkat, BJAB and HaCaT cells
T1 sequence (looked up): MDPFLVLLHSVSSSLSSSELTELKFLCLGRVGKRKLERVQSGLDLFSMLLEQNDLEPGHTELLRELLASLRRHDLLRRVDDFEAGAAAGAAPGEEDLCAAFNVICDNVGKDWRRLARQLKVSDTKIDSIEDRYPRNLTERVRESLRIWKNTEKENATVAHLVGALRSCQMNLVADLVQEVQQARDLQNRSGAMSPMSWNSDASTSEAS
Described as above. The note with it: partners not purified.

Experiment [4] deals with T1, endogenous FADD. Briefly: affinity purification with mass spectrometry; native TRAIL DISC from control (vector) BJAB cells; label-free absolute quantification (TOP 3) by LC-MS/MS, n = 3. The note with it: partners not purified.

Take “c-FLIPS stably overexpressed in BJAB or HaCaT cells (natural protein)”: the stoichiometry N in experiment [1] and in experiment [2] was 1 in each case.

B1: endogenous caspase-8 (natural protein, human (endogenous in BJAB and HaCaT), UniProt Q14790 1-479, looked up)
chain: MDFSRNLYDIGEQLDSEDLASLKFLSLDYIPQRKQEPIKDALMLFQRLQEKRMLEESNLSFLKELLFRINRLDLLITYLNTRKEEMERELQTPGRAQISAYRVMLYQISEEVSRSELRSFKFLLQEEISKCKLDDDMNLLDIFIEMEKRVILGEGKLDILKRVCAQINKSLLKIINDYEEFSKERSSSLEGSPDEFSNGEELCGVMTISDSPREQDSESQTLDKVYQMKSKPRGYCLIINNHNFAKAREKVPKLHSIRDRNGTHLDAGALTTTFEELHFEIKPHDDCTVEQIYEILKIYQLMDHSNMDCFICCILSHGDKGIIYGTDGQEAPIYELTSQFTGLKCPSLAGKPKVFFIQACQGDNYQKGIPVETDSEEQPYLEMDLSSPQTRYIPDEADFLLGMATVNNCVSYRNPAEGTWYIQSLCQSLRERCPRGDDILTILTEVNYEVSNKDDKKNMGKQMPQPTFTLRKKLVFPSD
notes: caspase-8, endogenous; procaspase-8 and p43/41 cleavage fragments detected; also called procaspase-8; p43/41 cleavage fragments; source: endogenous, BJAB and HaCaT lysates
B1: the stoichiometry N (as a rule, a count of units in the complex or per binding partner) in experiment [3] is roughly 1; in experiment [4] it was roughly 6 fold.
